Test system: T1, NC(=O)NC(C(=O)O)c1ccc(O)cc1
T1 construct: pET-28a(+)-Case, N- and C-terminal His6 tags, expressed in E. coli BL21(DE3), Ni-NTA purified, about 37 kDa
Assay: HPLC of D-HPG formed, double reciprocal plot
Type: biochemical, Agrobacterium sp. KNK712
Details: 50 mM Tris-HCl pH 7.5, 65 °C, 0.1-10.0 mM CpHPG
Excerpt: HPLC of D-HPG formed, double reciprocal plot on DCase (N-carbamoyl-D-amino acid amidohydrolase, EC 3.5.1.77; N-carbamoyl hydrolase)

Substance “DCase (N-carbamoyl-D-amino acid amidohydrolase, EC 3.5.1.77; N-carbamoyl hydrolase) (Agrobacterium sp. KNK712; A302C/Q4C/T212V)” has a Km of 2190 ± 260 µM, a kcat of 32.9 ± 0.658 s⁻¹ and a kcat/Km of 15000 ± 1200 M⁻¹ s⁻¹.
For “DCase (N-carbamoyl-D-amino acid amidohydrolase, EC 3.5.1.77; N-carbamoyl hydrolase) (Agrobacterium sp. KNK712; A302C/Q4C/T212A)”, the Km was 2380 ± 620 µM, the kcat was 30.4 ± 0.703 s⁻¹ and the kcat/Km was 12800 ± 572 M⁻¹ s⁻¹.
“DCase (N-carbamoyl-D-amino acid amidohydrolase, EC 3.5.1.77; N-carbamoyl hydrolase) (Agrobacterium sp. KNK712; A302C/Q4C/T212S)” gave a Km of 2120 ± 260 µM, a kcat of 38.1 ± 0.658 s⁻¹ and a kcat/Km of 18000 ± 722 M⁻¹ s⁻¹.
“DCase (N-carbamoyl-D-amino acid amidohydrolase, EC 3.5.1.77; N-carbamoyl hydrolase) (Agrobacterium sp. KNK712; A302C/Q4C/T212G)” gave a Km of 2340 ± 260 µM, a kcat of 36.7 ± 0.658 s⁻¹ and a kcat/Km of 15700 ± 939 M⁻¹ s⁻¹.
“DCase (N-carbamoyl-D-amino acid amidohydrolase, EC 3.5.1.77; N-carbamoyl hydrolase) (Agrobacterium sp. KNK712; Q4C)” gave a Km of 2440 ± 460 µM, a kcat of 12.6 ± 0.371 s⁻¹ and a kcat/Km of 5150 ± 265 M⁻¹ s⁻¹.
Substance “DCase (N-carbamoyl-D-amino acid amidohydrolase, EC 3.5.1.77; N-carbamoyl hydrolase) (Agrobacterium sp. KNK712; A302C/Q4C)” has a Km of 2560 ± 150 µM, a kcat of 29.2 ± 0.733 s⁻¹ and a kcat/Km of 11400 ± 516 M⁻¹ s⁻¹.

Source: paper PMC11151596, “Improving the enzymatic activity and stability of N-carbamoyl hydrolase using deep learning approach” (Microbial Cell Factories, 2024)
